# ± gives the uncertainty stated by the source.
# B1: DnaJ homolog subfamily C member 5, residues 16 to 77; numbered along this chain, Q9H3Z4 (parent)
# chain: LYHVLGLDKNATSDDIKKSYRKLALKYHPDKNPDNPEAADKFKEINNAHAILTDATKRNIYD
# Variants of: B1
# Assay: abundance fitness (aPCA) (normalised: wild type 0, dead -1); higher = more abundant; growth selection in yeast, the domain comes from the species named
# Conditions: Homo sapiens
row,Variant,abundance fitness
1,LYHVLGLDKNATSDDIKKSYRKLALKYHYDKNPDNPEAADKFKEINNAHAILTDATKRNIYD,-0.413 ± 0.097
2,LYHVLGLDKNATSDDIKKSYRKLALKYHPAKNPDNPEAADKFKEINNAHAILTDATKRNIYD,0.14 ± 0.09
3,LYHVLGLDKNATSDDIKKSYRKLALKYHPCKNPDNPEAADKFKEINNAHAILTDATKRNIYD,-0.221 ± 0.13
4,LYHVLGLDKNATSDDIKKSYRKLALKYHPEKNPDNPEAADKFKEINNAHAILTDATKRNIYD,0.01 ± 0.084
5,LYHVLGLDKNATSDDIKKSYRKLALKYHPFKNPDNPEAADKFKEINNAHAILTDATKRNIYD,-0.828 ± 0.28
6,LYHVLGLDKNATSDDIKKSYRKLALKYHPGKNPDNPEAADKFKEINNAHAILTDATKRNIYD,-0.171 ± 0.062
7,LYHVLGLDKNATSDDIKKSYRKLALKYHPKKNPDNPEAADKFKEINNAHAILTDATKRNIYD,0.084 ± 0.099
8,LYHVLGLDKNATSDDIKKSYRKLALKYHPMKNPDNPEAADKFKEINNAHAILTDATKRNIYD,-0.089 ± 0.17
9,LYHVLGLDKNATSDDIKKSYRKLALKYHPNKNPDNPEAADKFKEINNAHAILTDATKRNIYD,-0.018 ± 0.098
10,LYHVLGLDKNATSDDIKKSYRKLALKYHPPKNPDNPEAADKFKEINNAHAILTDATKRNIYD,-0.384 ± 0.1
11,LYHVLGLDKNATSDDIKKSYRKLALKYHPRKNPDNPEAADKFKEINNAHAILTDATKRNIYD,-0.207 ± 0.06
12,LYHVLGLDKNATSDDIKKSYRKLALKYHPSKNPDNPEAADKFKEINNAHAILTDATKRNIYD,0.099 ± 0.069
13,LYHVLGLDKNATSDDIKKSYRKLALKYHPTKNPDNPEAADKFKEINNAHAILTDATKRNIYD,0.067 ± 0.14
14,LYHVLGLDKNATSDDIKKSYRKLALKYHPVKNPDNPEAADKFKEINNAHAILTDATKRNIYD,-0.207 ± 0.075
15,LYHVLGLDKNATSDDIKKSYRKLALKYHPWKNPDNPEAADKFKEINNAHAILTDATKRNIYD,-0.749 ± 0.087
16,LYHVLGLDKNATSDDIKKSYRKLALKYHPYKNPDNPEAADKFKEINNAHAILTDATKRNIYD,-0.288 ± 0.15
17,LYHVLGLDKNATSDDIKKSYRKLALKYHPDANPDNPEAADKFKEINNAHAILTDATKRNIYD,-0.065 ± 0.085
18,LYHVLGLDKNATSDDIKKSYRKLALKYHPDCNPDNPEAADKFKEINNAHAILTDATKRNIYD,-0.64 ± 0.13
19,LYHVLGLDKNATSDDIKKSYRKLALKYHPDDNPDNPEAADKFKEINNAHAILTDATKRNIYD,-0.118 ± 0.14
20,LYHVLGLDKNATSDDIKKSYRKLALKYHPDENPDNPEAADKFKEINNAHAILTDATKRNIYD,-0.116 ± 0.11
21,LYHVLGLDKNATSDDIKKSYRKLALKYHPDFNPDNPEAADKFKEINNAHAILTDATKRNIYD,-0.371 ± 0.092
22,LYHVLGLDKNATSDDIKKSYRKLALKYHPDHNPDNPEAADKFKEINNAHAILTDATKRNIYD,-0.195 ± 0.17

row,Variant,abundance fitness
1,LYHVLGLDKNATSDDIKKSYRKLALKYHPDINPDNPEAADKFKEINNAHAILTDATKRNIYD,-0.06 ± 0.16
2,LYHVLGLDKNATSDDIKKSYRKLALKYHPDLNPDNPEAADKFKEINNAHAILTDATKRNIYD,-0.433 ± 0.083
3,LYHVLGLDKNATSDDIKKSYRKLALKYHPDMNPDNPEAADKFKEINNAHAILTDATKRNIYD,-0.521 ± 0.17
4,LYHVLGLDKNATSDDIKKSYRKLALKYHPDNNPDNPEAADKFKEINNAHAILTDATKRNIYD,-0.452 ± 0.18
5,LYHVLGLDKNATSDDIKKSYRKLALKYHPDPNPDNPEAADKFKEINNAHAILTDATKRNIYD,-0.379 ± 0.16
6,LYHVLGLDKNATSDDIKKSYRKLALKYHPDQNPDNPEAADKFKEINNAHAILTDATKRNIYD,-0.06 ± 0.12
7,LYHVLGLDKNATSDDIKKSYRKLALKYHPDSNPDNPEAADKFKEINNAHAILTDATKRNIYD,-0.51 ± 0.089
8,LYHVLGLDKNATSDDIKKSYRKLALKYHPDTNPDNPEAADKFKEINNAHAILTDATKRNIYD,-0.139 ± 0.11
9,LYHVLGLDKNATSDDIKKSYRKLALKYHPDWNPDNPEAADKFKEINNAHAILTDATKRNIYD,-0.626 ± 0.11
10,LYHVLGLDKNATSDDIKKSYRKLALKYHPDYNPDNPEAADKFKEINNAHAILTDATKRNIYD,-0.207 ± 0.15
11,LYHVLGLDKNATSDDIKKSYRKLALKYHPDKAPDNPEAADKFKEINNAHAILTDATKRNIYD,-0.349 ± 0.19
12,LYHVLGLDKNATSDDIKKSYRKLALKYHPDKDPDNPEAADKFKEINNAHAILTDATKRNIYD,-0.282 ± 0.15
13,LYHVLGLDKNATSDDIKKSYRKLALKYHPDKFPDNPEAADKFKEINNAHAILTDATKRNIYD,-0.24 ± 0.095
14,LYHVLGLDKNATSDDIKKSYRKLALKYHPDKGPDNPEAADKFKEINNAHAILTDATKRNIYD,-0.434 ± 0.11
15,LYHVLGLDKNATSDDIKKSYRKLALKYHPDKHPDNPEAADKFKEINNAHAILTDATKRNIYD,-0.009 ± 0.1
16,LYHVLGLDKNATSDDIKKSYRKLALKYHPDKKPDNPEAADKFKEINNAHAILTDATKRNIYD,-0.353 ± 0.11
17,LYHVLGLDKNATSDDIKKSYRKLALKYHPDKLPDNPEAADKFKEINNAHAILTDATKRNIYD,-0.684 ± 0.073
18,LYHVLGLDKNATSDDIKKSYRKLALKYHPDKMPDNPEAADKFKEINNAHAILTDATKRNIYD,-0.157 ± 0.094
19,LYHVLGLDKNATSDDIKKSYRKLALKYHPDKPPDNPEAADKFKEINNAHAILTDATKRNIYD,-0.691 ± 0.19
20,LYHVLGLDKNATSDDIKKSYRKLALKYHPDKRPDNPEAADKFKEINNAHAILTDATKRNIYD,-0.431 ± 0.076
21,LYHVLGLDKNATSDDIKKSYRKLALKYHPDKSPDNPEAADKFKEINNAHAILTDATKRNIYD,-0.3 ± 0.081
22,LYHVLGLDKNATSDDIKKSYRKLALKYHPDKTPDNPEAADKFKEINNAHAILTDATKRNIYD,-0.251 ± 0.086

row,Variant,abundance fitness
1,LYHVLGLDKNATSDDIKKSYRKLALKYHPDKVPDNPEAADKFKEINNAHAILTDATKRNIYD,-0.396 ± 0.078
2,LYHVLGLDKNATSDDIKKSYRKLALKYHPDKWPDNPEAADKFKEINNAHAILTDATKRNIYD,-0.179 ± 0.081
3,LYHVLGLDKNATSDDIKKSYRKLALKYHPDKYPDNPEAADKFKEINNAHAILTDATKRNIYD,-0.67 ± 0.14
4,LYHVLGLDKNATSDDIKKSYRKLALKYHPDKNADNPEAADKFKEINNAHAILTDATKRNIYD,-0.032 ± 0.09
5,LYHVLGLDKNATSDDIKKSYRKLALKYHPDKNCDNPEAADKFKEINNAHAILTDATKRNIYD,-0.327 ± 0.11
6,LYHVLGLDKNATSDDIKKSYRKLALKYHPDKNDDNPEAADKFKEINNAHAILTDATKRNIYD,-0.16 ± 0.14
7,LYHVLGLDKNATSDDIKKSYRKLALKYHPDKNEDNPEAADKFKEINNAHAILTDATKRNIYD,-0.035 ± 0.085
8,LYHVLGLDKNATSDDIKKSYRKLALKYHPDKNFDNPEAADKFKEINNAHAILTDATKRNIYD,-0.351 ± 0.18
9,LYHVLGLDKNATSDDIKKSYRKLALKYHPDKNGDNPEAADKFKEINNAHAILTDATKRNIYD,0.111 ± 0.052
10,LYHVLGLDKNATSDDIKKSYRKLALKYHPDKNHDNPEAADKFKEINNAHAILTDATKRNIYD,-0.798 ± 0.28
11,LYHVLGLDKNATSDDIKKSYRKLALKYHPDKNIDNPEAADKFKEINNAHAILTDATKRNIYD,-0.501 ± 0.16
12,LYHVLGLDKNATSDDIKKSYRKLALKYHPDKNKDNPEAADKFKEINNAHAILTDATKRNIYD,0.209 ± 0.14
13,LYHVLGLDKNATSDDIKKSYRKLALKYHPDKNLDNPEAADKFKEINNAHAILTDATKRNIYD,-0.507 ± 0.075
14,LYHVLGLDKNATSDDIKKSYRKLALKYHPDKNMDNPEAADKFKEINNAHAILTDATKRNIYD,-0.489 ± 0.1
15,LYHVLGLDKNATSDDIKKSYRKLALKYHPDKNNDNPEAADKFKEINNAHAILTDATKRNIYD,-0.365 ± 0.22
16,LYHVLGLDKNATSDDIKKSYRKLALKYHPDKNQDNPEAADKFKEINNAHAILTDATKRNIYD,-0.063 ± 0.11
17,LYHVLGLDKNATSDDIKKSYRKLALKYHPDKNRDNPEAADKFKEINNAHAILTDATKRNIYD,0.064 ± 0.053
18,LYHVLGLDKNATSDDIKKSYRKLALKYHPDKNSDNPEAADKFKEINNAHAILTDATKRNIYD,-0.121 ± 0.085
19,LYHVLGLDKNATSDDIKKSYRKLALKYHPDKNTDNPEAADKFKEINNAHAILTDATKRNIYD,-0.098 ± 0.076
20,LYHVLGLDKNATSDDIKKSYRKLALKYHPDKNVDNPEAADKFKEINNAHAILTDATKRNIYD,-0.225 ± 0.055
21,LYHVLGLDKNATSDDIKKSYRKLALKYHPDKNYDNPEAADKFKEINNAHAILTDATKRNIYD,-0.34 ± 0.09
22,LYHVLGLDKNATSDDIKKSYRKLALKYHPDKNPANPEAADKFKEINNAHAILTDATKRNIYD,-0.145 ± 0.074

row,Variant,abundance fitness
1,LYHVLGLDKNATSDDIKKSYRKLALKYHPDKNPCNPEAADKFKEINNAHAILTDATKRNIYD,-0.783 ± 0.12
2,LYHVLGLDKNATSDDIKKSYRKLALKYHPDKNPENPEAADKFKEINNAHAILTDATKRNIYD,-0.079 ± 0.085
3,LYHVLGLDKNATSDDIKKSYRKLALKYHPDKNPFNPEAADKFKEINNAHAILTDATKRNIYD,-1.01 ± 0.12
4,LYHVLGLDKNATSDDIKKSYRKLALKYHPDKNPGNPEAADKFKEINNAHAILTDATKRNIYD,0.068 ± 0.073
5,LYHVLGLDKNATSDDIKKSYRKLALKYHPDKNPHNPEAADKFKEINNAHAILTDATKRNIYD,-0.411 ± 0.2
6,LYHVLGLDKNATSDDIKKSYRKLALKYHPDKNPINPEAADKFKEINNAHAILTDATKRNIYD,-0.586 ± 0.17
7,LYHVLGLDKNATSDDIKKSYRKLALKYHPDKNPKNPEAADKFKEINNAHAILTDATKRNIYD,-0.006 ± 0.1
8,LYHVLGLDKNATSDDIKKSYRKLALKYHPDKNPLNPEAADKFKEINNAHAILTDATKRNIYD,-0.641 ± 0.07
9,LYHVLGLDKNATSDDIKKSYRKLALKYHPDKNPMNPEAADKFKEINNAHAILTDATKRNIYD,-0.694 ± 0.12
10,LYHVLGLDKNATSDDIKKSYRKLALKYHPDKNPNNPEAADKFKEINNAHAILTDATKRNIYD,-0.299 ± 0.086
11,LYHVLGLDKNATSDDIKKSYRKLALKYHPDKNPPNPEAADKFKEINNAHAILTDATKRNIYD,-0.623 ± 0.1
12,LYHVLGLDKNATSDDIKKSYRKLALKYHPDKNPQNPEAADKFKEINNAHAILTDATKRNIYD,-0.206 ± 0.089
13,LYHVLGLDKNATSDDIKKSYRKLALKYHPDKNPRNPEAADKFKEINNAHAILTDATKRNIYD,-0.251 ± 0.074
14,LYHVLGLDKNATSDDIKKSYRKLALKYHPDKNPTNPEAADKFKEINNAHAILTDATKRNIYD,-0.257 ± 0.096
15,LYHVLGLDKNATSDDIKKSYRKLALKYHPDKNPVNPEAADKFKEINNAHAILTDATKRNIYD,-0.591 ± 0.056
16,LYHVLGLDKNATSDDIKKSYRKLALKYHPDKNPWNPEAADKFKEINNAHAILTDATKRNIYD,-0.944 ± 0.12
17,LYHVLGLDKNATSDDIKKSYRKLALKYHPDKNPYNPEAADKFKEINNAHAILTDATKRNIYD,-0.355 ± 0.095
18,LYHVLGLDKNATSDDIKKSYRKLALKYHPDKNPDAPEAADKFKEINNAHAILTDATKRNIYD,-0.184 ± 0.082
19,LYHVLGLDKNATSDDIKKSYRKLALKYHPDKNPDCPEAADKFKEINNAHAILTDATKRNIYD,-0.462 ± 0.19
20,LYHVLGLDKNATSDDIKKSYRKLALKYHPDKNPDEPEAADKFKEINNAHAILTDATKRNIYD,-0.235 ± 0.094
